Source: publication PMC9287719 (2022)
Read-outs that look alike come from different tables or passages of the source. Each block holds one binder with its values, some of them ahead of it.

Tests used:
[1] = target: T1, Recombinant FcγRIIa (R131) with C-terminus Biotin (human, UniProt P12318, C-terminus Biotin)
T1 chain: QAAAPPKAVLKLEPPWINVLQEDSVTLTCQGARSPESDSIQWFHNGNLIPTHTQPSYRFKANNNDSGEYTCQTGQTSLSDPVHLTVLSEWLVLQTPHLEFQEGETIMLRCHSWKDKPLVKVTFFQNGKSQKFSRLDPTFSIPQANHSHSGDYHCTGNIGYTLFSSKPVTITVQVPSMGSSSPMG

[2] = target: T2, Recombinant FcγRIIa (H131) with C-terminus Biotin (human, UniProt P12318 34-217, C-terminus Biotin)
T2 chain: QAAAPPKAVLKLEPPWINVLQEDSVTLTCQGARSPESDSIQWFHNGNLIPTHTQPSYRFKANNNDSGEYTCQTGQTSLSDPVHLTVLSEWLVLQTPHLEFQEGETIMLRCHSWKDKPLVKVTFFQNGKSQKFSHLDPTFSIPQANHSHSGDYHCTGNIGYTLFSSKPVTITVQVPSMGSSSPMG

[3] = target: Recombinant FcγRIIIa (F158) with C-terminus Biotin (human, UniProt P08637 17-208, C-terminus Biotin)
[4] = target: T3, Recombinant FcγRI with C-terminus Biotin (human, UniProt P12314 16-292, C-terminus Biotin)
T3 chain: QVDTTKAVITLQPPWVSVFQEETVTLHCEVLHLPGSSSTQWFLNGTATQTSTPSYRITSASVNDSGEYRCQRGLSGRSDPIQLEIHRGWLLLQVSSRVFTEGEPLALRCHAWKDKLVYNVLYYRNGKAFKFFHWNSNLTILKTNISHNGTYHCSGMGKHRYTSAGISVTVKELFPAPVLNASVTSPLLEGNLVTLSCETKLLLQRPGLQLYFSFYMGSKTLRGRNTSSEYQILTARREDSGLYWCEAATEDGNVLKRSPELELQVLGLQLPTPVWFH

[5] = target: T4, Recombinant FcγRIIIa (V158) with C-terminus Biotin (human, UniProt P08637, C-terminus Biotin)
[6] = target: T5, Recombinant FcγRIIb with C-terminus Biotin (human, UniProt P31994 43-217, C-terminus Biotin)
T5 chain: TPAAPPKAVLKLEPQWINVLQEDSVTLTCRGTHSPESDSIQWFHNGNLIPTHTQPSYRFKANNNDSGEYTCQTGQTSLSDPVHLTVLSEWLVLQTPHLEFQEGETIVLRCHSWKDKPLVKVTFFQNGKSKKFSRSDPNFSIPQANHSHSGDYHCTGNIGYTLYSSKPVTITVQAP

[7] = target: T1, Recombinant FcγRIIa (R131) with …
[8] = target: T2, Recombinant FcγRIIa (H131) with …
[9] = target: T3, Recombinant FcγRI with C-terminus Biotin
[10] = target: T4, Recombinant FcγRIIIa (V158) with …; remark: listed apart in the source

T4 sequence (P08637 17-208 F176V): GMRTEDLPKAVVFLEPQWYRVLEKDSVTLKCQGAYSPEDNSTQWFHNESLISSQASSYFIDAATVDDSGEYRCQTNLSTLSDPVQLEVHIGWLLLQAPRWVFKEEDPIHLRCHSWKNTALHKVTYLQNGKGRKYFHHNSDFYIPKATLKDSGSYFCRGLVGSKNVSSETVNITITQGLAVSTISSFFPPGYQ
Sequence of Recombinant FcγRIIIa (F158) with C-terminus Biotin (P08637 17-208): as the sequence (P08637 17-208 F176V) above, with V160F counted along it

IC50 [1]: 1570 nM
IC50 [2]: 137 nM
B1: Panitumumab (antibody)
chain 1: QVQLQESGPGLVKPSETLSLTCTVSGGSVSSGDYYWTWIRQSPGKGLEWIGHIYYSGNTNYNPSLKSRLTISIDTSKTQFSLKLSSVTAADTAIYYCVRDRVTGAFDIWGQGTMVTVSS
chain 2: DIQMTQSPSSLSASVGDRVTITCQASQDISNYLNWYQQKPGKAPKLLIYDASNLETGVPSRFSGSGSGTDFTFTISSLQPEDIATYFCQHFDHLPLAFGGGTKVEIK

IC50 [3]: 101 nM
IC50 [4]: 0.06 nM
IC50 [5]: 15.5 nM
IC50 [6]: 2900 nM
IC50 [7]: 394 nM
IC50 [8]: 244 nM
B2: Infliximab (antibody)
chain 1: EVKLEESGGGLVQPGGSMKLSCVASGFIFSNHWMNWVRQSPEKGLEWVAEIRSKSINSATHYAESVKGRFTISRDDSKSAVYLQMTDLRTEDTGVYYCSRNYYGSTYDYWGQGTTLTVSS
chain 2: DILLTQSPAILSVSPGERVSFSCRASQFVGSSIHWYQQRTNGSPRLLIKYASESMSGIPSRFSGSGSGTDFTLSINTVESEDIADYYCQQSHSWPFTFGSGTNLEVK

IC50 [9]: 0.44 nM
IC50 [10]: 1960 nM
B3: Pembrolizumab (antibody)
chain 1: QVQLVQSGVEVKKPGASVKVSCKASGYTFTNYYMYWVRQAPGQGLEWMGGINPSNGGTNFNEKFKNRVTLTTDSSTTTAYMELKSLQFDDTAVYYCARRDYRFDMGFDYWGQGTTVTVSS
chain 2: EIVLTQSPATLSLSPGERATLSCRASKGVSTSGYSYLHWYQQKPGQAPRLLIYLASYLESGVPARFSGSGSGTDFTLTISSLEPEDFAVYYCQHSRDLPLTFGGGTKVEIK
